Measured values as given in IntAct's records for PubMed 18001824.

Target: rnf8_human RNF8 (UniProt O76064)
Chain of UniProt O76064 (O76064 whole entry): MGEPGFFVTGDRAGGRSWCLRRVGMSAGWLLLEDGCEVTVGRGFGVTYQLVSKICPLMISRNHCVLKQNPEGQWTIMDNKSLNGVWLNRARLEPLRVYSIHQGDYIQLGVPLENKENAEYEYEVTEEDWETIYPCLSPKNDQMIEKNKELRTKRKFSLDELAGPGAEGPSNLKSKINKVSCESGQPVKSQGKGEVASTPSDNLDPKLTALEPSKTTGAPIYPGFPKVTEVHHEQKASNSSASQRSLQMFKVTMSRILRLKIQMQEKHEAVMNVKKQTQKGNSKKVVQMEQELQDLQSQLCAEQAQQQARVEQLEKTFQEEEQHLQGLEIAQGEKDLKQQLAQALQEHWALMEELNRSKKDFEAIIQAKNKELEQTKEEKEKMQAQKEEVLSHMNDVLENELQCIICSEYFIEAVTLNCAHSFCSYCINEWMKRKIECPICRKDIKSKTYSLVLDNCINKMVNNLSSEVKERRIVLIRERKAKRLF

- effect of a mutation on the interaction: decreasing interaction
Substance: Mediator of DNA damage checkpoint protein 1 (Homo sapiens), Q14676 T699A;T719A;T752A
